This is an account of results in paper PMC2151650.

This assay deals with triadin (rabbit) (UniProt Q28820). Briefly: co-IP.
Sequence of triadin (rabbit) (Q28820 whole entry): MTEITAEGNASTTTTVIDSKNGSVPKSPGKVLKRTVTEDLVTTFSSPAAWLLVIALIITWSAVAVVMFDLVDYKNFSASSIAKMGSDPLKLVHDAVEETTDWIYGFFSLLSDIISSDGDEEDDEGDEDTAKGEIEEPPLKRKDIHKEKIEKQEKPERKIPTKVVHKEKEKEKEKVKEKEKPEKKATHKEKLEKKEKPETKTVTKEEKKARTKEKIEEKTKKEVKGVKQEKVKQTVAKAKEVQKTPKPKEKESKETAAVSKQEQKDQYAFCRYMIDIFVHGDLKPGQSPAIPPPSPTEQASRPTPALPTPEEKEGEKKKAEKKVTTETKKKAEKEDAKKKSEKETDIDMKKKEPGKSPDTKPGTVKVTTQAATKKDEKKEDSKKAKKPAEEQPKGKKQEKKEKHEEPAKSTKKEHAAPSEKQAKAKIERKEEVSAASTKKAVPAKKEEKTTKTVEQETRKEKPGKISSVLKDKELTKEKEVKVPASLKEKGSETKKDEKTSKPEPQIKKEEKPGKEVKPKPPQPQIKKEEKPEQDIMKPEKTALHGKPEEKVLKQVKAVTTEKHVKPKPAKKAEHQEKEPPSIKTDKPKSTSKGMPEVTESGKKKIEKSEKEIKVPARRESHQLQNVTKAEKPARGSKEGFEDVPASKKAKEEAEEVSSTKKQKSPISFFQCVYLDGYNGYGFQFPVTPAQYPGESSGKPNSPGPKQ

“RyR1 D4878A/D4907A, P11716 1-5037 (natural protein)” registered a percent reduction in triadin binding against WT RyR1 of 50%.
